Source: patent US20100035825A1

How the values were obtained:
[1] = biological target: purified recombinant procaspase 8 (human, Alexis Biochemicals) (human) (UniProt Q14790); experiment: co-immunoprecipitation of purified recombinant proteins (C/EBPβ peptides 200 µM), immunoblot, densitometry; reference C/EBPβ 216-253-HA-Ala217
[2] = biological target: purified recombinant procaspase 1 (human, Alexis Biochemicals) (human) (UniProt P29466); experiment: as above
[3] = biological target: purified recombinant procaspase 1 (human, Alexis Biochemicals) (human) (UniProt P29466); experiment: co-immunoprecipitation of purified recombinant proteins (C/EBPβ peptides 200 µM), immunoblot, densitometry; reference C/EBPβ-HA-Ala217

purified recombinant procaspase 8 (human, Alexis Biochemicals) (human), sequence (Q14790 217-479 limits assumed): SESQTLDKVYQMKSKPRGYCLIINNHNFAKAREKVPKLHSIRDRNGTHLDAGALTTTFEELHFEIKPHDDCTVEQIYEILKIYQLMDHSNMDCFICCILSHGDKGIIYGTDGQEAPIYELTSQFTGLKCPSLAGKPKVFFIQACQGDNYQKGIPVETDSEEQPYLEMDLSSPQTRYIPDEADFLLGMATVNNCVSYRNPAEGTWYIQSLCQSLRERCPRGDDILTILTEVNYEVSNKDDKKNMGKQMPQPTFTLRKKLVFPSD

Substance	fold more co-immunoprecipitated than the Ala^217 peptides (densitometry) [1]	fold more co-immunoprecipitated than the Ala^217 peptides (densitometry) [2]	fold more co-immunoprecipitated than the Ala^217 peptides (densitometry) [3]
C/EBPβ 216-253-HA-Glu^217	12 fold	7 fold	
C/EBPβ-HA-Glu^217 (from UniProt P28033 1-296)			7 fold
